Like-named read-outs stand apart in the source and are kept apart here. Blank lines part the entries; values can stand above or below the molecule they belong to. Bridges are numbered along the chain shown (N, C = ends). Where no end group is shown, it is not given here. [ ]: non-standard residue; d: D form. Aoc = NCCCCCCCC(=O)O
Experiments:
[1] = target: human hippocampal Y2 receptor (clone CG-13) (human) (UniProt P49146); assay: 125I-PYY displacement, COS-7 membranes, Ki from IC50
[2] = target: human hippocampal Y2 receptor (clone CG-13) (human) (UniProt P49146); assay: as above; remark: listed apart in the source
[3] = target: T1, human Y1 receptor (human, UniProt P25929 1-384); assay: as above
T1 construct: whole, on cells; transiently expressed in COS-7 cells; membranes used; also called Y1 gene
T1 sequence (looked up): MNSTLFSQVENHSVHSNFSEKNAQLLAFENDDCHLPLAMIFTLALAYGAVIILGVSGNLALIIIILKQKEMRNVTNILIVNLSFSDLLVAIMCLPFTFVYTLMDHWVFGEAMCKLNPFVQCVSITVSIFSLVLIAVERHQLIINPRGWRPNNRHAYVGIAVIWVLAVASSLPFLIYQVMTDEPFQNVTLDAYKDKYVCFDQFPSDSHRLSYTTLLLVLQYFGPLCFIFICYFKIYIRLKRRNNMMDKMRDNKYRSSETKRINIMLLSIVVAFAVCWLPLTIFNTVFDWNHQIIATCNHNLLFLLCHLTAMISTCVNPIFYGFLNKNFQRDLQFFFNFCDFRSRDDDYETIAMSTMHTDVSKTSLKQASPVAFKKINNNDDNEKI

[4] = target: T2, human Y4 receptor (human, UniProt P50391 1-375); assay: as above
T2 construct: whole, on cells; transiently expressed in COS-7 cells; membranes used

[5] = target: T3, human Y2 receptor (Homo sapiens, UniProt P49146); assay: 125I-PYY binding to membranes from stably transfected NIH-3T3 cells (N-hY2-5); parameters: expressed in transfected cells; settings: 100 μM Gpp(NH)p, 0.08 nM 125I-PYY, NIH-3T3 cell membranes
T3 sequence (P49146 1-381): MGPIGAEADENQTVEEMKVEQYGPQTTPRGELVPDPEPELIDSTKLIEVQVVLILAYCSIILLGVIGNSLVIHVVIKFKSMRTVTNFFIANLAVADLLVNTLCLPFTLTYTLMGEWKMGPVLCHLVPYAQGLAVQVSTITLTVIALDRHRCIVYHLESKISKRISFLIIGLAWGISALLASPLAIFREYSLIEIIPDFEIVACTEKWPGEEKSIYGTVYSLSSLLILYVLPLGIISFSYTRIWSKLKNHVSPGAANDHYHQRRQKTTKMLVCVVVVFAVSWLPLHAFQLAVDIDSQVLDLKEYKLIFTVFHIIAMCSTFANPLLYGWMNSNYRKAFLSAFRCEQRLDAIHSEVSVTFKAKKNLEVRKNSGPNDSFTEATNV
From the text: Two positive clones were identified and isolated for further study (293 clone #10 and NIH-3T3 clone #5). […] The data serve to emphasize that the receptor/G protein interactions for a given receptor clone can vary depending upon the resident G proteins in the host cell line (93). Additional factors such as receptor density and receptor reserve can also play a role (92).

[6] = target: T4, rat Y2a receptor (Rattus norvegicus, UniProt Q9ERC0); assay: Competitive displacement of 125I-PYY, membranes of COS-7 cells transiently expressing rat Y2a; assay type: binding; settings: 100 μM Gpp(NH)p, rat Y2a in COS-7
T4 construct: expressed in transfected cells; host or cells: COS-7 (transient); 4.0 kb EcoRI genomic fragment of rs5a in EXJ.RH
T4 sequence (Q9ERC0 1-381): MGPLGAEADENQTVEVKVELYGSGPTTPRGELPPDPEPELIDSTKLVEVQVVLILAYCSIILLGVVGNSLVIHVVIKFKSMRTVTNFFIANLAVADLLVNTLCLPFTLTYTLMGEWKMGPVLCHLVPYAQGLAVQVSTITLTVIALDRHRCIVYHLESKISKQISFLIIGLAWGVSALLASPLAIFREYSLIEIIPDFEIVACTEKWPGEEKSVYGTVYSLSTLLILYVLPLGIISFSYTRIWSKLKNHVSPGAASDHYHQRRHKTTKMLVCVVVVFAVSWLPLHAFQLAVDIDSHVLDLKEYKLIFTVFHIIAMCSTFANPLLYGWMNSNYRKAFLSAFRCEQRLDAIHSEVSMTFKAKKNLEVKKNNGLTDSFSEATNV

[7] = target: T3, human Y2 receptor; assay: 125I-PYY binding to membranes from 293 stable clone (293-hY2-10); parameters: expressed in transfected cells; settings: 100 μM Gpp(NH)p, 0.08 nM 125I-PYY, 293 cell membranes
[8] = target: T5, CG-13 receptors (human Y2 receptor) (Homo sapiens, UniProt P49146); assay: Competitive displacement of 125I-PYY, membranes of COS-7 cells transiently expressing CG-13 (human Y2); assay type: binding; settings: 100 μM Gpp(NH)p, human Y2 in COS-7
T5 construct: expressed in transfected cells; host or cells: COS-7 (transient, DEAE-dextran)
T5 sequence (P49146 1-381): T3 sequence (P49146 1-381)

[9] = target: rat Y2a receptor (encoded by rs5a) (rat); assay: 125I-PYY displacement, COS-7 membranes, Ki from IC50
[10] = target: human hippocampal Y2 receptor (clone CG-13) (human) (UniProt P49146); assay: cell-based or functional assay
[11] = target: T3, human Y2 receptor; assay: Intracellular calcium mobilization (Fura-2/AM), stably transfected 293 cells; settings: pretreatment 100 ng/ml for 24 hours
[12] = system: Y1 receptor; assay: Whole cell 125I-PYY binding, COS-7 cells transfected with the Y1 gene; parameters: species or system human; settings: 100 fold excess of cold peptide
Method: DNA from pools of ≈5000 independent clones was transfected into COS-7 cells by a modification of the DEAE-dextran procedure (17). COS-7 cells were grown in Dulbecco's Modified Eagle Medium (DMEM) supplemented with 10% fetal calf serum, 100 U/mL of penicillin, 100 μg/mL of streptomycin, 2 mM L-glutamine (DMEM-C) at 37° C. in 5% CO2. The cells were seeded one day before transfection at a density of 30,000 cells/cm^2 in 6 well plates (Becton Dickinson, Lincoln Park, N.J.). On the next day, cells were washed twice with Phosphate Buffer Saline (PBS), 400 μl of transfection cocktail was added containing 1/10 of the DNA from each pool and DEAE-dextran (500 μg/mL) in PBS. After a 30 min. incubation at 37° C., 1.6 mL of chloroquine (80 μM in DMEM-C) was added and the cells incubated a further 2.5 hours at 37° C. The media was aspirated from each well and 1 mL of 10% DMSO in DMEM-C added. After 2.5 min. incubation at room temperature, the media was aspirated, each well washed once with 1 mL PBS and the cells incubated 24 hours in DMEM-C. […]
Since both Y1 and Y2 receptor subtypes are expressed in the hippocampus (2), we analyzed the DNA of positive pools by PCR with Y1 specific primers. […]

[13] = target: T6, human hippocampal Y2 receptor (clone CG-13) (human, UniProt P49146 1-381); assay: 125I-PYY displacement, COS-7 membranes, Ki from IC50
T6 construct: 381 amino acids; also called CG-13 receptor; human Y2
T6 sequence: T3 sequence (P49146 1-381)

[14] = target: T1, human Y1 receptor; assay: as above; remark: listed apart in the source
[15] = target: T6, human hippocampal Y2 receptor (clone …); assay: 125I-PYY displacement binding assay (Table 9, binding column)
[16] = target: T6, human hippocampal Y2 receptor (clone …); assay: cell-based or functional assay
[17] = target: T6, human hippocampal Y2 receptor (clone …); assay: 125I-PYY displacement, COS-7 membranes, Ki from IC50; remark: listed apart in the source
[18] = target: T1, human Y1 receptor; assay: as above; remark: listed apart in the source
[19] = target: T7, Y2-like receptor population expressed by human SK-N-Be(2) neuroblastoma cells (human); assay: 125I-PYY displacement, SK-N-Be(2) membranes, Ki from IC50
T7 chain: T3 sequence (P49146 1-381)

[20] = target: T8, rat Y2a receptor (encoded by rs5a) (rat); assay: 125I-PYY displacement, COS-7 membranes, Ki from IC50
T8 chain: T4 sequence (Q9ERC0 1-381)

[21] = target: T6, human hippocampal Y2 receptor (clone …); assay: as above; remark: listed apart in the source

T2 sequence (P50391 whole entry): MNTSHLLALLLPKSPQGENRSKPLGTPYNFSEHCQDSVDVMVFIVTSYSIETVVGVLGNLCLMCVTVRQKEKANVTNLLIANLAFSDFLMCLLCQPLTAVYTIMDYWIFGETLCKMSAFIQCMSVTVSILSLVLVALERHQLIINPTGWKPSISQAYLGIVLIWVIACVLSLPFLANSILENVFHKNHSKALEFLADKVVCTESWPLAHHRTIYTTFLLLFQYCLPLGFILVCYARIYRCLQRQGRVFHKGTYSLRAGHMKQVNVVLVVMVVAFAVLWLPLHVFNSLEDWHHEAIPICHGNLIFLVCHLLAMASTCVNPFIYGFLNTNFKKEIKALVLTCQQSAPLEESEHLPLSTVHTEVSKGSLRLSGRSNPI

Molecule: PP, avian (peptide)
Ki [2]: > 1000 nM | Ki [3]: 400 nM | Ki [4]: 7 nM

Molecule: Nc1nc2c(ncn2[C@@H]2O[C@H](COP(=O)(O)OP(=O)(O)NP(=O)(O)O)[C@@H](O)[C@H]2O)c(=O)[nH]1 [Gpp(NH)p]
reduction of specific binding of 125I-PYY [5]: 6% | decrease of specific binding of 125I-PYY [6]: 23% | reduction of specific binding of 125I-PYY [7]: 32% | decrease of specific binding of 125I-PYY [8]: 4%

Molecule: pertussis toxin
decrease of the response to 300 nM human PYY [11]: 93%

Molecule: [Leu^31,Pro^34]NPY: analog of NPY modified at residues 31 and 34, species not stated
inhibition of binding of 125I-PYY [12]: totally inhibited

B1: C2-NPY, porcine (peptide)
chain: YCSK[Aoc]RHCINLITRQRY-NH2
modifications: disulfide 2-8; N-terminus assumed
SMILES: CC[C@H](C)[C@H](NC(=O)[C@@H]1CSSC[C@H](NC(=O)[C@@H](N)Cc2ccc(O)cc2)C(=O)N[C@@H](CO)C(=O)N[C@@H](CCCCN)C(=O)NCCCCCCCC(=O)N[C@@H](CCCNC(=N)N)C(=O)N[C@@H](Cc2c[nH]cn2)C(=O)N1)C(=O)N[C@@H](CC(N)=O)C(=O)N[C@@H](CC(C)C)C(=O)N[C@H](C(=O)N[C@H](C(=O)N[C@@H](CCCNC(=N)N)C(=O)N[C@@H](CCC(N)=O)C(=O)N[C@@H](CCCNC(=N)N)C(=O)N[C@@H](Cc1ccc(O)cc1)C(N)=O)[C@@H](C)O)[C@@H](C)CC
Ki [13]: 3.5 nM | Ki [14]: 73 nM | Ki [4]: 120 nM | Ki [15]: 3.5 nM | EC50, inhibition of forskolin-stimulated cAMP accumulation, stably transfected 293 cells [16]: 0.14 nM

B6: PP, rat (peptide, UniProt P06303 30-65, looked up)
peptide: APLEPMYPGDYATHEQRAQYETQLRRYINTLTRPRY-NH2
notes: mature; also called rat PP
Ki [21]: > 1000 nM | Ki [13]: > 1000 nM | Ki [14]: 460 nM | Ki [4]: 0.18 nM

B8: NPY1-24 amide, human (peptide, UniProt P01303 29-52, looked up)
peptide: YPSKPDNPGEDAPAEDMARYYSAL-NH2
notes: range 1-24
Ki [13]: > 1000 nM

B10: PP, frog (peptide)
peptide: APSEPHHPGDQATQDQLAQYYSDLYQYITFVTRPRF-NH2
notes: also called frog PP
Ki [13]: > 1000 nM | Ki [14]: 96 nM | Ki [4]: 61 nM

B11: PP, bovine (peptide, UniProt P01302 30-65, looked up)
peptide: APLEPEYPGDNATPEQMAQYAAELRRYINMLTRPRY-NH2
notes: mature; also called bovine PP
Ki [21]: > 825 nM | Ki [13]: 830 nM | Ki [14]: 240 nM | Ki [4]: 0.05 nM

The remaining lines, values ahead:

Ki [1]: > 300 nM | Ki [2]: > 1000 nM
Molecule: human NPY free acid (from UniProt P01303 29-64) (peptide)

Ki [9]: 0.17 nM | Ki [3]: 0.2 nM | Ki [4]: 3.2 nM | EC50, inhibition of forskolin-stimulated cAMP accumulation, stably transfected 293 cells [10]: 0.07 nM
Molecule: PP, salmon (peptide)

Ki [17]: 4.6 nM | Ki [18]: 170 nM | Ki [19]: 3.2 nM | Ki [13]: 18 nM | Ki [15]: 18 nM | EC50, inhibition of forskolin-stimulated cAMP accumulation, stably transfected 293 cells [16]: 2.3 nM
B2: porcine NPY22-36 (peptide, UniProt P01304 31-45, looked up)
peptide: SALRHYINLITRQRY-NH2
notes: range 22-36; also called NPY22-36, porcine

Ki [17]: 1.5 nM | Ki [20]: 1.5 nM
B3: porcine PYY13-36 (peptide, UniProt P68005 13-36, looked up)
peptide: SPEELSRYYASLRHYLNLVTRQRY-NH2
notes: range 13-36; also called PYY13-36, porcine

Ki [19]: 1.8 nM | Ki [4]: 38 nM
B4: porcine NPY13-36 (peptide, UniProt P01304 22-45, looked up)
peptide: PAEDLARYYSALRHYINLITRQRY-NH2
notes: range 13-36; also called NPY13-36, porcine

Ki [17]: 210 nM | Ki [21]: 380 nM | Ki [19]: 70 nM | Ki [13]: 380 nM | Ki [14]: > 1000 nM
B5: porcine NPY26-36 (peptide, UniProt P01304 35-45, looked up)
peptide: HYINLITRQRY-NH2
notes: range 26-36; also called NPY26-36, porcine

Ki [18]: 62 nM | Ki [14]: 63 nM | Ki [4]: 120 nM
B7: porcine NPY20-36 (peptide, UniProt P01304 29-45, looked up)
peptide: YYSALRHYINLITRQRY-NH2
notes: range 20-36; also called NPY20-36, porcine

Ki [17]: 3.8 nM | Ki [19]: 5 nM | Ki [13]: 3.6 nM | Ki [4]: 54 nM | Ki [15]: 3.6 nM | EC50, inhibition of forskolin-stimulated cAMP accumulation, stably transfected 293 cells [16]: 1.8 nM
B9: porcine NPY16-36 (peptide, UniProt P01304 25-45, looked up)
peptide: DLARYYSALRHYINLITRQRY-NH2
notes: range 16-36; also called NPY16-36, porcine
